Data taken from patent US20250368742A1 (D2M BIOTHERAPEUTICS, published 2025).

Target: T1, human MICA002 on cells (human)
T1 chain: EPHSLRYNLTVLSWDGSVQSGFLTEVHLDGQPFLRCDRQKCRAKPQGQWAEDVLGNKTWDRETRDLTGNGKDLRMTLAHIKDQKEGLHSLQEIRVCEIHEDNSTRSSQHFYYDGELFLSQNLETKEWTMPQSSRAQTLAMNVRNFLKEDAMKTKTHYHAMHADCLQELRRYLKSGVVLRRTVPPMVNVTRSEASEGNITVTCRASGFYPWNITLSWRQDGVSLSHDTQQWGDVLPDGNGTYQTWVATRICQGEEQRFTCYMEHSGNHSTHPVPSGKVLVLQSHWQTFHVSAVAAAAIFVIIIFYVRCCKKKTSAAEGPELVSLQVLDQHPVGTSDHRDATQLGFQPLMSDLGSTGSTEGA
Assay: flow cytometry, CHO-MICA002 cells

- EC50: 0.209 µg/mL
B1: 1D5 (antibody, human IgG1, kappa, V domains shown)
VH: EIQLQQSGPELVKPGASVKVSCKASGYAFTSQNIYWVKQSHGKSLEWIGYIEPYNVVPMYNPKFKGKATLTVDKSSSSAYIHLNSLTSEDSAIYYCARSGSSNFDYWGQGTTLTVSS
VL: EIILTQSPTTMAASPGEKITITCSASSSISSHYLHWYQQKSGFSPKLLIYRTSNLASGVPARFSGSGSGTSYSLTIGTMEAEDVATYYCQQGSSLPLTFGAGTKVEIKR
notes: also called ID5
